How the values were obtained:
[1] = target: T1, wild type B. subtilis glutamine PRPP amidotransferase (Bacillus subtilis, UniProt P00497); assay: Inhibition of enzyme activity by nucleotides (glutamate formation assay), wild type; type: biochemical; settings: read-out: Km PRPP; wild type enzyme; data not shown
T1 construct: Enzymes of the B. subtilis class are synthesized with an NH2 terminal propeptide and an Fe—S center; made in house; host or cells: E. coli strain TX158 (purF) with plasmid pGZ1
T1 sequence (P00497 12-476): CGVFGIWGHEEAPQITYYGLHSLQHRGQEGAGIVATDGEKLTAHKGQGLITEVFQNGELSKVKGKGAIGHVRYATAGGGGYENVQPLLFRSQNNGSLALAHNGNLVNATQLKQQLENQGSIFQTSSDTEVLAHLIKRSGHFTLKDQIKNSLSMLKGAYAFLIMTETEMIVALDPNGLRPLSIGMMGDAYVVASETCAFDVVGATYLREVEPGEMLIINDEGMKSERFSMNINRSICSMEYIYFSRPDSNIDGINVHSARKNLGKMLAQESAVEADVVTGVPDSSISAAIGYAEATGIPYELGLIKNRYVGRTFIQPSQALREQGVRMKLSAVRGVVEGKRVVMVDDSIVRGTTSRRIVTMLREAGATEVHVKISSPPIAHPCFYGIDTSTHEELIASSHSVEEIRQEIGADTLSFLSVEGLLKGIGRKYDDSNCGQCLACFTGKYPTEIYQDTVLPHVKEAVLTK
Experimental: Enzyme activity was assayed by measuring the initial rate of formation of the product glutamate. […] Incubation was at 37° C. for 6 min. […] Reactions were quenched in a boiling water bath for 2 min, and glutamate was determined by the glutamate dehydrogenase method.
Inhibition by nucleotides was determined by the standard assay to which varied concentrations of nucleotide were added. Synergistic inhibition was determined by varying the concentration of one nucleotide in the presence of a fixed concentration of a second nucleotide. Relative activity (see FIG. 1) refers to the enzyme activity at a given concentration of the varied nucleotide relative to that in the absence of the varied nucleotide. I0.5 values were calculated from plots of relative activity versus varied nucleotide concentration.

[2] = system: O=P(O)(O)OC[C@H]1OC(OP(=O)(O)OP(=O)(O)O)[C@H](O)[C@@H]1O; assay: purified protein, by the assay type; settings: other: S347A enzyme; data not shown; pH 8.0; 37.0 °C
[3] = Specific activity of purified enzyme; type: biochemical, Bacillus subtilis; settings: typical value
Experimental: For enzyme purification, all buffers were sparged with nitrogen gas prior to use in order to minimize oxidation of the enzyme's Fe-S cluster. All steps were carried out at 4° C. Cells were resuspended in 4 mL/gram of buffer A [50 mM Tris-HCl (pH 8.0), 10 mM MgCl2, 0.1 mM EDTA, 5 mM DTT, and 2 mM AMP] containing 1 mM PMSF, and were disrupted by two passes through a French Press. The cell extract was obtained by centrifugation for 1 h at 27,000 g. Protamine sulfate (5 mg per gram of cells) was added to the extract to precipitate DNA. After centrifugation at 27,000 g for 30 min, the supernatant was applied to a 1.9×20 cm column of DEAE-Sepharose equilibrated with buffer A. The column was washed with 300 mL of buffer A and 300 mL of buffer A plus 0.1 M KCl and eluted with a linear salt gradient of 600 mL from 0.1 to 1.0 M KCl in buffer A. Brown-colored fractions containing the enzyme were precipitated by addition of ammonium sulfate to 40% saturation. After centrifugation, enzyme in the brown pellet was recovered by extraction twice with 30% saturated ammonium sulfate. […]
Enzyme activity was assayed by measuring the initial rate of formation of the product glutamate. […] Reactions were quenched in a boiling water bath for 2 min, and glutamate was determined by the glutamate dehydrogenase method. […]

O=P(O)(O)OC[C@H]1OC(OP(=O)(O)OP(=O)(O)O)[C@H](O)[C@@H]1O (stereo partly drawn) [PRPP, phosphoribosylpyrophosphate]
Km [1]: 75 to 81 µM

glutamine PRPP amidotransferase S347A mutant enzyme (Bacillus subtilis subsp. subtilis str. 168; S358A)
Km [2]: 182 µM

B1: wild type: wild type B. subtilis glutamine PRPP amidotransferase produced from plasmid pGZ1 (protein, UniProt P00497 12-476, looked up)
Amidophosphoribosyltransferase: T1 sequence (P00497 12-476)
Enzyme specific activity [3]: 25 nmol/min/mg

Reference: US6586216B2 (Purdue Research Foundation, priority 1997, dated 2003)
